Reference: patent US20200317768A1 (published 2020)

T1: human FcγRIIb constitutively expressed on MDCK cells (human, UniProt P31994 43-310)
T1 sequence (looked up): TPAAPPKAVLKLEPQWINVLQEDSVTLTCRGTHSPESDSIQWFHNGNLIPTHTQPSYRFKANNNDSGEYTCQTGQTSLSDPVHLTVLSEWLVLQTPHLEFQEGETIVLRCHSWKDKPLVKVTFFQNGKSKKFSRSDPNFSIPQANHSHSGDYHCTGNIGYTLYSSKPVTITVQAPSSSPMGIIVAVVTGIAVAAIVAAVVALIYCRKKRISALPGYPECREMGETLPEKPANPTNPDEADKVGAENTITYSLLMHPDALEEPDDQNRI

T2: soluble mouse FcγRII, His-tagged (mouse, UniProt P08101 30-210, limits assumed)
T2 construct: Captured on the chip by an anti-His antibody
T2 sequence (looked up): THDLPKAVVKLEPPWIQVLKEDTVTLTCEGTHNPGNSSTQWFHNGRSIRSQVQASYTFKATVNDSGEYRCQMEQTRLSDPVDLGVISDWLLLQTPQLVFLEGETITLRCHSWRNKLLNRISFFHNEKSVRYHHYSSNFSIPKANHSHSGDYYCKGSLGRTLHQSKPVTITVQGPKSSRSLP

T3: Cynomolgus monkey latent myostatin (cynomolgus monkey, UniProt Q95J86 25-266; Q95J86 267-375)
T3 construct: Latent form = complex of two propeptides and the mature dimer; also called Cyno latent myostatin
T3 sequence 1: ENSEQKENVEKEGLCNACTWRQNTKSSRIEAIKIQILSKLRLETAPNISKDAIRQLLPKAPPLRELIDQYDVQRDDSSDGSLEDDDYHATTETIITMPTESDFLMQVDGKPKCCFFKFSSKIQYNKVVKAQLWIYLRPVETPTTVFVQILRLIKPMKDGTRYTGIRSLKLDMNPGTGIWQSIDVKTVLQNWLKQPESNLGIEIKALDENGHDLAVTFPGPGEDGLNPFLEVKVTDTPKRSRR
T3 sequence 2: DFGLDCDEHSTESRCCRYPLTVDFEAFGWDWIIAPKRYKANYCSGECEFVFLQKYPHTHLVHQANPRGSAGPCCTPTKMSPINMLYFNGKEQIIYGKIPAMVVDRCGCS

T4: Mouse latent myostatin (mouse, UniProt O08689 26-267; O08689 268-376)
T4 construct: Latent form = complex of two propeptides and the mature dimer
T4 sequence 1: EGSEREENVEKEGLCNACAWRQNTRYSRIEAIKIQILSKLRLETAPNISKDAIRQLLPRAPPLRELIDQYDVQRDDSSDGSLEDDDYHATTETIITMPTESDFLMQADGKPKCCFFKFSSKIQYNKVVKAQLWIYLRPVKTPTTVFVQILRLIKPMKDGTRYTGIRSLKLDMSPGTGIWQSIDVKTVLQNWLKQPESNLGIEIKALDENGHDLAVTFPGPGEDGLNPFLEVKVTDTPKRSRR
T4 sequence 2: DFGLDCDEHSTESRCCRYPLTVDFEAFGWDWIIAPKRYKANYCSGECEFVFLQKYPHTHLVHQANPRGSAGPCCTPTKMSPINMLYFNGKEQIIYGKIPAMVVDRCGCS

T5: Human latent myostatin (human, UniProt O14793 25-266; O14793 267-375)
T5 construct: also called human myostatin latent form
T5 sequence 1: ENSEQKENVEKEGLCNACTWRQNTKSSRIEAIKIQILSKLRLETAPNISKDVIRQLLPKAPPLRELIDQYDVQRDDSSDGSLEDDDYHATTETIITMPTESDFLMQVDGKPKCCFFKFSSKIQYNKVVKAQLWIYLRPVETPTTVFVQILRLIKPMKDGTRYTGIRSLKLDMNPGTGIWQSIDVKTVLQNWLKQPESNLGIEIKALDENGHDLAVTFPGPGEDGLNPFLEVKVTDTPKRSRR
T5 sequence 2: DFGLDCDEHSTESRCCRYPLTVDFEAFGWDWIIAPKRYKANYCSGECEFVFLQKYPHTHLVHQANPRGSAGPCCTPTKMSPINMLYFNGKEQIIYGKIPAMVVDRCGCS


Experiments:
[1] = target: T1, human FcγRIIb constitutively expressed …; test: cell-based or functional assay
[2] = target: T2, soluble mouse FcγRII, His-tagged; test: SPR, mouse FcgRII-His captured, antigen-antibody complex injected, pH7.4, 25C
[3] = target: T3, Cynomolgus monkey latent myostatin; test: SPR 37C; KD pH 5.8 / KD pH 7.4
Mouse latent myostatin = target: T4, Mouse latent myostatin; test: SPR 37C; KD pH 5.8 / KD pH 7.4
Human latent myostatin = target: T5, Human latent myostatin; test: SPR 37C; KD pH 5.8 / KD pH 7.4

Binder | celluar uptake [1] | biacore IC binding [2] | ratio of KD at pH 5.8/pH 7.4 [3] | ratio of KD at pH 5.8/pH 7.4 (Mouse latent myostatin) | ratio of KD at pH 5.8/pH 7.4 (Human latent myostatin)
MS1032LO06-SG1 (M103205H795-SG1/M103202L889-SK1) (antibody, human IgG1, kappa, Anti-latent myostatin antibody) heavy: not shown light: DIVMTQSPATLSLSPGERATLSCTSSQSVYHANWLSWFQQKPGQPPKLLIYWASTLAYGVPSRFSGSGSGTDFTLTISSLQPEDAATYYCAGGYGGGRYAFGQGTKVEIKRTVAAPSVFIFPPSDEQLKSGTASVVCLLNNFYPREAKVQWKVDNALQSGNSQESVTEQDSKDSTYSLSSTLTLSKADYEKHKVYACEVTHQGLSSPVTKSFNRGEC | 1 relative to SG1 (=1.00) | 1 relative to SG1 (=1.00) | – | – | –
MS_M103205H795-SG1/M103202L889-SK1 (antibody, human IgG1, kappa, also called MS1032LO06-SG1) heavy: not shown light: DIVMTQSPATLSLSPGERATLSCTSSQSVYHANWLSWFQQKPGQPPKLLIYWASTLAYGVPSRFSGSGSGTDFTLTISSLQPEDAATYYCAGGYGGGRYAFGQGTKVEIKRTVAAPSVFIFPPSDEQLKSGTASVVCLLNNFYPREAKVQWKVDNALQSGNSQESVTEQDSKDSTYSLSSTLTLSKADYEKHKVYACEVTHQGLSSPVTKSFNRGEC | – | – | 76 | 76 | 119
